Assay [1] deals with Polr2a (mouse, endogenous) (mouse, UniProt P08775 1-1970). In words: co-IP, endogenous proteins, mouse pancreatic tissue.
For assay [2], the target named is T1, AGR2 (human, endogenous in PDAC cells) (human, UniProt O95994 21-175, limits assumed).
T1 construct: Endogenous protein co-immunoprecipitated from Capan2 cell lysate
T1 sequence (looked up): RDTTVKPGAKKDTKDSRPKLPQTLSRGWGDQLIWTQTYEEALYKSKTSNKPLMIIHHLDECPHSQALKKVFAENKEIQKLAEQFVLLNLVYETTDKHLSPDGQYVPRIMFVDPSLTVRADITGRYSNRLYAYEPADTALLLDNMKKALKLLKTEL
In words: co-IP competition in PDAC cells, dose-dependent inhibition of POLR2A-AGR2 binding.

For assay [3], the target named is T1, AGR2 (human, endogenous in PDAC cells). Put plainly: co-IP competition in Capan2 cells (FIG. 5B).

B1: Agr2 (mouse, endogenous) (other)
chain: KDTTVKSGAKKDPKDSRPKLPQTLSRGWGDQLIWTQTYEEALYRSKTSNRPLMVIHHLDECPHSQALKKVFAEHKEIQKLAEQFVLLNLVYETTDKHLSPDGQYVPRIVFVDPSLTVRADITGRYSNRLYAYEPSDTALLYDNMKKALKLLKTEL
notes: Endogenous protein co-immunoprecipitated from mouse pancreatic tissue lysate
With B1, the binding result in assay [1] is on record as “binds”.

B2: hexapeptide PTTIYY (SEQ ID NO:4) (peptide)
peptide: PTTIYY
notes: Synthetic, previously described peptide used as positive control; liposome-encapsulated form; also called bioactive hexapeptide; positive control
Consider B2, for which the binding result in assay [2] was “binds”.

B3: hexapeptide NTAIYY (SEQ ID NO:2) (peptide)
peptide: NTAIYY
notes: also called bioactive hexapeptide
Turning to B3, the binding result in assay [3] is given as “binds”.

The values above are taken from patent US20240190915A1 (KLINIKUM RECHTS DER ISAR DER TECHNISCHEN UNIVERSIT T M NCHEN, published 2024).
